pKd: −log10 of the molar value. “And” between values parts separate entries of the source, which are not always exact repeats. Equal entries are not always repeated.
Legend:
HA-LRRTM2 = HA-LRRTM2 (UniProt Q8BGA3); experiment: immunostaining of cells or tissue
LRRTM2 = LRRTM2 (UniProt O43300); settings: cited from earlier work
Chain of LRRTM2 (O43300 34-422): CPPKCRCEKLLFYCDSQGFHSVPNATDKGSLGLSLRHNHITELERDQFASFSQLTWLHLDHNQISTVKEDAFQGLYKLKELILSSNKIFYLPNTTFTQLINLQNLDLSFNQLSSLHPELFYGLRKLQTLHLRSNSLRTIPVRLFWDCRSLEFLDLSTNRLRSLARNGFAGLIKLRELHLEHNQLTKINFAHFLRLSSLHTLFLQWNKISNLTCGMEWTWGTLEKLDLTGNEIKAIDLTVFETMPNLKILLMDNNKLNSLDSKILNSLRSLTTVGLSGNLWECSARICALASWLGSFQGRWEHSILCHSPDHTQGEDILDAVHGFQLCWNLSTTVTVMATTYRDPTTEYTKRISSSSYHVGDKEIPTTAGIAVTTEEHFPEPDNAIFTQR

Chain of Neurexin-1beta(-S4) (P58400 91-289): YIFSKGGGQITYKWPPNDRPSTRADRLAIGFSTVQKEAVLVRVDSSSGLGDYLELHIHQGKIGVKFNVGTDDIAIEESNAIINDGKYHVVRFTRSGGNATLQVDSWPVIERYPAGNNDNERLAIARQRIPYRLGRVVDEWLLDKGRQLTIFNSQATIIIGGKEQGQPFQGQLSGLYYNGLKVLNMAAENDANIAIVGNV
Chain of HA-LRRTM2 (Q8BGA3 34-515): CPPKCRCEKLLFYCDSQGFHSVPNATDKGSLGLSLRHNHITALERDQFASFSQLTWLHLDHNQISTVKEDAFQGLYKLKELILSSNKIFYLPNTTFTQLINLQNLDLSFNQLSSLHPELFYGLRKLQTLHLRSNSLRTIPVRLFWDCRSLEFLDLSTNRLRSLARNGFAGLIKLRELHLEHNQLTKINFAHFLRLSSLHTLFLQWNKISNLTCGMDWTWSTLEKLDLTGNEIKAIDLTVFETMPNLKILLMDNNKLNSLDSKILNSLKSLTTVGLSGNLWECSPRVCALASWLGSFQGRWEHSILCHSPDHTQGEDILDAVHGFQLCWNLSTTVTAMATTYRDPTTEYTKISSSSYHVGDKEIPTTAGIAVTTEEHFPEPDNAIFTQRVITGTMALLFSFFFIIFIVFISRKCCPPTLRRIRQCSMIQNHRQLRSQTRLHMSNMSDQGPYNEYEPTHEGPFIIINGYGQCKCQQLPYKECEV

pKd (HA-LRRTM2)	Substance	pKd (LRRTM2)
7.70	Nrx1β(−S4)-Fc (Fc fusion)	–
–	Neurexin-1beta(-S4) (from UniProt P58400)	8.15 and 8.24
